According to patent US20210324099A1 (Chugai, published 2021):
Changes are numbered by the printed parent chain.

T1: hFcgRIIaR (human, UniProt P12318 34-217)
T1 construct: extracellular domain; also called human FcγRIIa type R (R131)
T1 sequence (looked up): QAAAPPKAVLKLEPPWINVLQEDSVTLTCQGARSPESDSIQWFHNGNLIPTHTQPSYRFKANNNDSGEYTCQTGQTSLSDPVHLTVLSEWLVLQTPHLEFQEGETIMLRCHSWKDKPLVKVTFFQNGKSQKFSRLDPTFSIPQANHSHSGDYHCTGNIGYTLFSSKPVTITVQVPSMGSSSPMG

T2: hFcgRIIaH (human, UniProt P12318 34-217)
T2 construct: extracellular domain; also called human FcγRIIa type H (H131)
T2 sequence (looked up): T1 sequence (looked up) with R134H

T3: hFcgRIIb (human, UniProt P31994 43-217)
T3 construct: extracellular domain; also called human FcγRIIb
T3 sequence (looked up): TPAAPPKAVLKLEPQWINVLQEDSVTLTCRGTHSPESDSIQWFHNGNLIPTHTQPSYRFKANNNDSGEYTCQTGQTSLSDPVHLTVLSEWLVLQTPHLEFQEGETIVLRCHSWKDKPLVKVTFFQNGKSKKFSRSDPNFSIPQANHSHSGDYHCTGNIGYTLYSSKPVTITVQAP

B1: A375-SCF025/B167-Lamlib (antibody, human IgG1, lambda)
heavy: EVQLVESGGGLVKPGGSLRLSCAASGFTFSTFTMNWVRQAPGKGLEWVSSISSKSTYIEYADSFKVRFTISRDNAKNSLYLQMNSLRAEDTAVYYCARYGAKNFLNWVFDYWGQGTLVTVSSASTKGPSVFPLAPSSKSTSGGTAALGCLVKDYFPEPVTVSWNSGALTSGVHTFPAVLQSSGLYSLSSVVTVPSSSLGTQTYICNVNHKPSNTKVDKKVEPKSCDKTHTCPPCPAPELWNGPSVFLFPPKPKDTLMISRTPEVTCVVVDVSDEDPEVKFNWYVDGVEVHNAKTKPREELYNSTYRVVSVLTVLHQDWLNGKEYKCKVSNTALPKPIEKTISKAKGQRREPQVYTLPPSREEMTKNQVSLTCLVKGFYPSDIAVEWESNGQPENNYKTTPPVLDSDGSFFLYSKLTVKKSRWQQGNVFSCSVMHEALHNHYTQKSLSLSP
light: QSALTQPPSASGSPGQTVTISCTGTRYDVGYYEYVSWYQQHPGKAPKLMIYETSKRLSGVPDRFSGSKSGNTASLTVSGLQAEDEADYYCSSYRYEHQVSFGGGTKLTVLGQPKAAPSVTLFPPSSEELQANKATLVCLISDFYPGAVTVAWKADSSPVKAGVETTTPSKQSNNKYAASSYLSLTPEQWKSHRSYSCQVTHEGSTVEKTVAPTECS
B2: A375-SCF027/B167-Lamlib (antibody, human IgG1, lambda)
heavy: B1 heavy with L239Y, W240L, N241G, P243D, T255V, V269I, D273H, L300Q, T312P, T331K
light: B1 light
notes: also called A375-SCF027/B167-LamLab
B3: A375-SCF025a/B167-Lamlib (antibody, human IgG1, lambda)
heavy: B1 heavy with K219R
light: B1 light
B4: A375-SCF033/B167-Lamlib (antibody, human IgG1, lambda)
heavy: EVQLVESGGGLVKPGGSLRLSCAASGFTFSTFTMNWVRQAPGKGLEWVSSISSKSTYIEYADSFKVRFTISRDNAKNSLYLQMNSLRAEDTAVYYCARYGAKNFLNWVFDYWGQGTLVTVSSASTKGPSVFPLAPSSKSTSGGTAALGCLVKDYFPEPVTVSWNSGALTSGVHTFPAVLQSSGLYSLSSVVTVPSSSLGTQTYICNVNHKPSNTKVDKKVEPKSCDKTHTCPPCPAPEYLGDDSVFLFPPKPKDVLMISRTPEVTCVVVDVSHEDPEVKFNWYVDGVEVHNAKTKPREEQYNSTYRVVSVLPVLHRDWLNGKEYKCKVSNKALPKPIEKTISKAKGQRREPQVYTLPPSREEMTKNQVSLTCLVKGFYPSDIAVEWESNGQPENNYKTTPPVLDSDGSFFLYSKLTVDKSRWQQGNVFSCSVMHEALHNHYTQKSLSLSP
light: B1 light
B5: A375-SCF028/B167-Lamlib (antibody, human IgG1, lambda)
heavy: B4 heavy with R316Q, D418K
light: B1 light
B6: A375-SCF030/B167-Lamlib (antibody, human IgG1, lambda)
heavy: B1 heavy with Q316R, K418D
light: B1 light
B7: A375-SCF032/B167-Lamlib (antibody, human IgG1, lambda)
heavy: B4 heavy with D242G, V269I
light: B1 light

What follows are binders tested against T4, hFcgRIa (human, UniProt P12314 16-292) (assay: SPR 25C).
T4 construct: extracellular domain; also called human FcγRIa; FcγRI
T4 sequence (P12314 16-292): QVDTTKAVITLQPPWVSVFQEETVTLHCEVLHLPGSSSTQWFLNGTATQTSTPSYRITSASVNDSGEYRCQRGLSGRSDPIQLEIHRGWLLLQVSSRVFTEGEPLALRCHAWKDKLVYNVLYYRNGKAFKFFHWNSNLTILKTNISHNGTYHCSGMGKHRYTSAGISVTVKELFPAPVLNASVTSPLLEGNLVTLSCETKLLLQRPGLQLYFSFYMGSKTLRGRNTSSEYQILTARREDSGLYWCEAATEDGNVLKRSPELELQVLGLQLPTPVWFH
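Wherever binding per 1RU of antibody is given: biacore SPR with antibody captured on an anti-human Fab lambda chip, human FcγR injected at 1000 nM (FcγRIa at 8 nM) in pH 7.4 phosphate buffer.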
Method: (§1) Biacore T200 (GE Healthcare) was used to evaluate the binding activity to the respective human Fcγ receptor (hereafter referred to as FcγR). Measurement was performed at 25° C. using 50 mM phosphate, 150 mM NaCl, 0.05 w/v %-P20, pH 7.4 as buffer. About 1000 RU of antibody was captured using a sensor chip immobilized with CaptureSelect™ Human Fab-lambda Kinetics Biotin Conjugate (Thermo Fisher Scientific) as a molecule for ligand capturing. Human FcγR was diluted to 8 nM for FcγRIa and 1000 nM for other FcγR in the measurement buffer, and it was interacted to the captured antibody. The binding activity of each antibody to FcγR was assessed by calculating the binding amount of FcγR (RU) per unit amount of antibody using Biacore T200 Evaluation Software 2.0.

Binder	binding per 1RU of antibody [RU]
B1	0.0022
B2	0.0044
B3	0.0021
B4	0.0033
B5	0.0027
B6	0.002
B7	0.0049

The binders below were run against T1, hFcgRIIaR (assay: SPR 25C).
Method: as §1

Binder	binding per 1RU of antibody [RU]
B1	0.0519
B2	0.0058
B3	0.0518
B4	0.0255
B5	0.0299
B6	0.0532
B7	-0.0004

What follows are binders tested against T5, hFcgRIIIaF (human, UniProt P08637 17-208) (assay: SPR 25C).
T5 construct: extracellular domain; also called human FcγRIIIa allotype F158
T5 sequence (P08637 17-208): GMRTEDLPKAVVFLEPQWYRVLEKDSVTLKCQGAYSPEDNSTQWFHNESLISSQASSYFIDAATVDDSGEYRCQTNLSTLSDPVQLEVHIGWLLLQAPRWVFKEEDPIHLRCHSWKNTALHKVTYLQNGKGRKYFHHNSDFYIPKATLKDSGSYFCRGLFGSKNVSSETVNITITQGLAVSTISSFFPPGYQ
Method: as §1

Binder	binding per 1RU of antibody [RU]
B1	0.0012
B2	-0.0005
B3	0.0009
B4	0
B5	-0.0009
B6	0.0017
B7	-0.0007

What follows are binders tested against T2, hFcgRIIaH (assay: SPR 25C).
Method: as §1

Binder	binding per 1RU of antibody [RU]
B1	0.0514
B2	0.0031
B3	0.0514
B4	0.0103
B5	0.0101
B6	0.0533
B7	0.003

What follows are binders tested against T6, hFcgRIIIaV (human, UniProt P08637 17-208) (assay: SPR 25C).
T6 construct: extracellular domain; also called human FcγRIIIa allotype V158
T6 sequence (P08637 17-208 F176V): as the sequence (P08637 17-208) above, with F160V counted along it
Method: as §1

Binder	binding per 1RU of antibody [RU]
B1	0.0014
B2	-0.0006
B3	0.0016
B4	0.0002
B5	-0.001
B6	0.002
B7	-0.0007

These binders were tested against T3, hFcgRIIb (assay: SPR 25C).
Method: as §1

Binder	binding per 1RU of antibody [RU]
B1	0.0512
B2	0.0766
B3	0.0511
B4	0.0979
B5	0.0995
B6	0.0532
B7	0.0782

The binders below were run against human FcRn (human, UniProt P55899 24-290; P61769 21-119, limits assumed) (assay: SPR 25C pH 6.0, steady state;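 further: antibody captured on chip via anti-human Fab-lambda ligand, human FcRn injected as analyte in 50 mM phosphate buffer with 150 mM NaCl and P20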).
human FcRn, sequence (P55899 24-290 limits assumed, chain 1 of 2): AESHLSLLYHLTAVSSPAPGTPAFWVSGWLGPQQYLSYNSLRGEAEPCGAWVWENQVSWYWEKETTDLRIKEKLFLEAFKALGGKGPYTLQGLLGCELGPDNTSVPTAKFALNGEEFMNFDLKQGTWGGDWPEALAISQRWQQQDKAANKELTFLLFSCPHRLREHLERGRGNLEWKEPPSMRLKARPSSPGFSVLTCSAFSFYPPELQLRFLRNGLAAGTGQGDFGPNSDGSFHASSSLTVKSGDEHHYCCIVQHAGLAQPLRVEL
human FcRn, sequence (P61769 21-119 limits assumed, chain 2 of 2): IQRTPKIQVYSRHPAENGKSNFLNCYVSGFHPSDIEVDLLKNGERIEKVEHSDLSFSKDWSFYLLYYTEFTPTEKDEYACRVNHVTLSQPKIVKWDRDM

Binder	Kd [nM]
B1	1100
B2	1330
B3	1130
B4	874
B5	1270
B6	863
B7	966

What follows are binders tested against T4, hFcgRIa (assay: SPR 25C; relative to A375-G1T3/B167-Lamlib;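 further: SPR with antibody captured on an anti-human Fab-lambda chip, human FcγR analyte at 8 nM for FcγRIa or 1000 nM for the others, pH 7.4, FcγR RU per captured antibody unit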).
Method: as §1

Binder	relative binding amount
B1	0.03
B2	0.05
B3	0.03
B4	0.04
B5	0.03
B6	0.02
B7	0.06

The binders below were run against T1, hFcgRIIaR (assay: SPR 25C; relative to A375-G1T3/B167-Lamlib;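 further: SPR with antibody captured on an anti-human Fab-lambda chip, human FcγR analyte at 8 nM for FcγRIa or 1000 nM for the others, pH 7.4, FcγR RU per captured antibody unit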).
Method: as §1

Binder	relative binding amount
B1	1.12
B2	0.12
B3	1.12
B4	0.55
B5	0.64
B6	1.15
B7	-0.01

The binders below were run against T5, hFcgRIIIaF (assay: SPR 25C; relative to A375-G1T3/B167-Lamlib;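 further: SPR with antibody captured on an anti-human Fab-lambda chip, human FcγR analyte at 8 nM for FcγRIa or 1000 nM for the others, pH 7.4, FcγR RU per captured antibody unit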).
Method: as §1

Binder	relative binding amount
B1	0.06
B2	-0.02
B3	0.04
B4	0
B5	-0.04
B6	0.08
B7	-0.03

What follows are binders tested against T2, hFcgRIIaH (assay: SPR 25C; relative to A375-G1T3/B167-Lamlib;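 further: SPR with antibody captured on an anti-human Fab-lambda chip, human FcγR analyte at 8 nM for FcγRIa or 1000 nM for the others, pH 7.4, FcγR RU per captured antibody unit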).
Method: as §1

Binder	relative binding amount
B1	0.91
B2	0.06
B3	0.91
B4	0.18
B5	0.18
B6	0.94
B7	0.05

What follows are binders tested against T6, hFcgRIIIaV (assay: SPR 25C; relative to A375-G1T3/B167-Lamlib).
Method: as §1

Binder	relative binding amount
B1	0.02
B2	-0.01
B3	0.02
B4	0
B5	-0.01
B6	0.03
B7	-0.01

Each binder was assayed against T3, hFcgRIIb (assay: SPR 25C; relative to A375-G1T3/B167-Lamlib).
Method: as §1

Binder	relative binding amount
B1	4.67
B2	6.99
B3	4.67
B4	8.94
B5	9.08
B6	4.85
B7	7.14
